Test results: US20160002326A1 (AbbVie / Abbott, published 2016)

T1: mouse TNF (mouse, UniProt P06804 80-235)
T1 construct: also called murine TNF; rodent TNF (mouse)
T1 sequence (looked up): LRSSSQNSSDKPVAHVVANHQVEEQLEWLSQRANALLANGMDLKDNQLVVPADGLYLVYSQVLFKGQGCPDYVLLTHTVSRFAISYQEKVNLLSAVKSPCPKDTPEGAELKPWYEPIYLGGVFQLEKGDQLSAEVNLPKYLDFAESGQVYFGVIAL

T2: mouse IL-17 (mouse, UniProt Q62386 26-158, limits assumed)
T2 construct: also called mouse IL-17A; rodent IL-17 (mouse)
T2 sequence (looked up): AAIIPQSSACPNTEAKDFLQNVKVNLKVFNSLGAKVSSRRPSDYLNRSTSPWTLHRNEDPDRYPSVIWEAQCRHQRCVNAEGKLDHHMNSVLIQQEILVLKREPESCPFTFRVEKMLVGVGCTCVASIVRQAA


What was measured:
mouse TNF = biological target: T1, mouse TNF; experiment: assay not stated (Table 5, 'Source And Binding Information')
mouse IL-17 = biological target: T2, mouse IL-17; experiment: as above

Binder | IC50 (mouse TNF) [nM] | IC50 (mouse IL-17) [nM]
anti-murine TNF antibody 8C11 (antibody, mouse IgG2c, V domains shown, also called 8C11 anti-TNF Ab; Anti-TNF) VH: EFQLQQSGPELVKPGASVRISCKASGYSFTDYNMNWVKQSNGKSLEWVGVINPNYGSSTYNQKFKGKATLTVDQSSSTAYMQLNSLTSEDSAVYYCARKWGQLGRGFFDVWGTGTTVTVSS VL: QIVLSQSPAILSASPGEKVTMTCRASSSVSYMHWFQQKPGSSPKPWIYATSNLASGVPARFSGSGSGTSYSLTISRVEAEDAATYYCQQWSSSPLTFGAGTKLELKR | 2 | –
8C11/10F7M11 anti-TNF/IL-17 DVD-Ig protein (bispecific antibody, human IgG1, kappa, L234A L235A, also called 8C11/10F7 DVD-Ig protein; anti-mouse TNF/IL-17 DVD-Ig) heavy: not shown light: QIVLSQSPAILSASPGEKVTMTCRASSSVSYMHWFQQKPGSSPKPWIYATSNLASGVPARFSGSGSGTSYSLTISRVEAEDAATYYCQQWSSSPLTFGAGTKLELKRGGSGGGGSGQIVLTQSPAIMSASPGEKVTMTCSASSSISYIYWFQQKPGTSPKRWIYATFELASGVPARFSGSGSGTSYSLTISSMEAEDAATYYCHQRSSYPWTFGGGSKLEIKRTVAAPSVFIFPPSDEQLKSGTASVVCLLNNFYPREAKVQWKVDNALQSGNSQESVTEQDSKDSTYSLSSTLTLSKADYEKHKVYACEVTHQGLSSPVTKSFNRGEC | 2 | 0.13
